{"source": "paper PMC6858323", "about": "“Multiple conformations facilitate PilT function in the type IV pilus” (Nature Communications, 2019)", "parents": {"B1": {"name": "PilT^Pa two-hybrid fusion from pKT25::PilT^Pa (wild type) [Pseudomonas aeruginosa] / PilT^Pa two-hybrid fusion from pUT18C::pilT [Pseudomonas aeruginosa] (parent)", "chain 1": "MDITELLAFSAKQGASDLHLSAGLPPMIRVDGDVRRINLPPLEHKQVHALIYDIMNDKQRKDFEEFLETDFSFEVPGVARFRVNAFNQNRGAGAVFRTIPSKVLTMEELGMGEVFKRVSDVPRGLVLVTGPTGSGKSTTLAAMLDYLNNTKYHHILTIEDPIEFVHESKKCLVNQREVHRDTLGFSEALRSALREDPDIILVGEMRDLETIRLALTAAETGHLVFGTLHTTSAAKTIDRVVDVFPAEEKAMVRSMLSESLQSVISQTLIKKIGGGRVAAHEIMIGTPAIRNLIREDKVAQMYSAIQTGGSLGMQTLDMCLKGLVAKGLISRENAREKAKIPENF", "chain 2": "B1 chain 1"}, "B2": {"name": "PilT^Pa two-hybrid fusion from pKT25::PilT^Pa (wild type) [Pseudomonas aeruginosa] / PilC^Pa two-hybrid fusion from pUT18C::PilC^Pa [Pseudomonas aeruginosa] (parent)", "chain 1": "B1 chain 1", "chain 2": "MLVKAHLRKQGINPLKVRKKGISLLGAGKKVKPMDIALFTRQMATMMGAGVPLLQSFDIIGEGFDNPNMRKLVDEIKQEVSSGNSLANSLRKKPQYFDELYCNLVDAGEQSGALENLLDRVATYKEKTESLKAKIRKAMTYPIAVIIVALIVSAILLIKVVPQFQSVFQGFGAELPAFTQMVVNLSEFLQEWWLAVIVGVGAIGFTFKELHKRSKKFRDTLDRTILKLPIFGGIVYKSAVARYARTLSTTFAAGVPLVDALDSVSGATGNIVFKNAVSKIKQDVSTGMQLNFSMRTTSVFPNMAIQMTAIGEESGSLDEMLSKVASYYEEEVDNAVDNLTTLMEPMIMAVLGVLVGGLIVAMYLPIFQLGNVVG"}}}
{"variants_of": "B1", "assay": "bacterial two-hybrid (BACTH), β-galactosidase activity", "settings": "with PilT^Pa two-hybrid fusion from pUT18C::pilT [Pseudomonas aeruginosa]; E. coli BTH101; n = 3; parent: 9.3e+03; read off a plot", "units": {"response": "Miller units"}}
{"variant": "chain 1 MDITELLAFSAKQGASDLHLSAGLPPMIRVDGDVRRINLPPLEHKQVHALIYDIMNDKQRKDFEEFLETDFSFEVPGVARFRVNAFNQNRGAGAVFRTIPSKVLTMEELGMGEVFKRVSDVPRGLVLVTGPTGSGKSTTLAAMLDYLNNTKYHHILTIEDPIEFVHESKKCLVNQREVHRDTLGFSEALRSALREDPDIILVGEMRDLETIRLALTAAETGHLVFGTLHTTSAAKTIDRVVKVFPAEEKAMVRSMLSESLQSVISQTLIKKIGGGRVAAHEIMIGTPAIRNLIREDKVAQMYSAIQTGGSLGMQTLDMCLKGLVAKGLISRENAREKAKIPENF", "note": "[chain 1 D242K]", "response": 8000}
{"variant": "chain 1 MDITELLAFSAKQGASDLHLSAGLPPMIRVDGDVRRINLPPLEHKQVHALIYDIMNDKQRKDFEEFLETDFSFEVPGVARFRVNAFNQNRGAGAVFRTIPSKVLTMEELGMGEVFKRVSDVPRGLVLVTGPTGSGKSTTLAAMLDYLNNTKYHHILTIEDPIEFVHESKKCLVNQREVHRDTLGFSEALRSALREDPDIILVGEMRDLETIRLALTAAETGHLVFGTLHTTSAAKTIDRVVDVFPAEEKAMVRSMLSASLQSVISQTLIKKIGGGRVAAHEIMIGTPAIRNLIREDKVAQMYSAIQTGGSLGMQTLDMCLKGLVAKGLISRENAREKAKIPENF", "note": "[chain 1 E258A]", "response": 9300}
{"variant": "chain 1 MDITELLAFSAKQGASDLHLSAGLPPMIRVDGDVRRINLPPLEHKQVHALIYDIMNDKQRKDFEEFLETDFSFEVPGVARFRVNAFNQNRGAGAVFRTIPSKVLTMEELGMGEVFKRVSDVPRGLVLVTGPTGSGKSTTLAAMLDYLNNTKYHHILTIEDPIEFVHESKKCLVNQREVHRDTLGFSEALRSALREDPDIILVGEMRDLETIRLALTAAKTGHLVFGTLHTTSAAKTIDRVVDVFPAEEKAMVRSMLSESLQSVISQTLIKKIGGGRVAAHEIMIGTPAIRNLIREDKVAQMYSAIQTGGSLGMQTLDMCLKGLVAKGLISRENAREKAKIPENF", "note": "[chain 1 E219K]", "response": 8600}
{"variant": "chain 1 MDITELLAFSAKQGASDLHLSAGLPPMIRVKGDVRRINLPPLEHKQVHALIYDIMNDKQRKDFEEFLETDFSFEVPGVARFRVNAFNQNRGAGAVFRTIPSKVLTMEELGMGEVFKRVSDVPRGLVLVTGPTGSGKSTTLAAMLDYLNNTKYHHILTIEDPIEFVHESKKCLVNQREVHRDTLGFSEALRSALREDPDIILVGEMRDLETIRLALTAAETGHLVFGTLHTTSAAKTIDRVVDVFPAEEKAMVRSMLSESLQSVISQTLIKKIGGGRVAAHEIMIGTPAIRNLIREDKVAQMYSAIQTGGSLGMQTLDMCLKGLVAKGLISRENAREKAKIPENF", "note": "[chain 1 D31K]", "response": 7000}
{"variant": "chain 1 MDITELLAFSAKQGASDLHLSAGLPPMIRVDGDVRRINLPPLEHKQVHALIYDIMNDKQRKDFEEFLETDFSFEVPGVARFRVNAFNQNRGAGAVFRTIPSKVLTMEELGMGEVFKRVSDVPDGLVLVTGPTGSGKSTTLAAMLDYLNNTKYHHILTIEDPIEFVHESKKCLVNQREVHRDTLGFSEALRSALREDPDIILVGEMRDLETIRLALTAAETGHLVFGTLHTTSAAKTIDRVVDVFPAEEKAMVRSMLSESLQSVISQTLIKKIGGGRVAAHEIMIGTPAIRNLIREDKVAQMYSAIQTGGSLGMQTLDMCLKGLVAKGLISRENAREKAKIPENF", "note": "[chain 1 R123D]", "response": 8000}
{"variant": "chain 1 MDITELLAFSAKQGASDLHLSAGLPPMIRVDGDVRRINLPPLEHKQVHALIYDIMNDKQRKDFEEFLETDFSFEVPGVARFRVNAFNQNRGAGAVFRTIPSKVLTMEELGMGEVFKRVSDVPRGLVLVTGPTGSGKSTTLAAMLDYLNNTKYHHILTIEDPIEFVHESKKCLVNQREVHRDTLGFSEALRSALREDPDIILVGEMRDLETIRLALTAAETGHLVFGTLATTSAAKTIDRVVDVFPAEEKAMVRSMLSESLQSVISQTLIKKIGGGRVAAHEIMIGTPAIRNLIREDKVAQMYSAIQTGGSLGMQTLDMCLKGLVAKGLISRENAREKAKIPENF", "note": "[chain 1 H229A]", "response": 11000}
{"variant": "chain 1 MDITELLAFSAKQGASDLHLSAGLPPMIRVDGDVRRINLPPLEHKQVHALIYDIMNDKQRKDFEEFLETDFSFEVPGVARFRVNAFNQNRGAGAVFRTIPSKVLTMEELGMGEVFKRVSDVPRGLVLVTGPTGSGKSTTLAAMLDYLNNTKYHHILTIEDPIEFVHESKKCLVNQREVHRDTLGFSEALRSALREDPDIILVGEMRDLETIRLALRAAETGHLVFGTLHTTSAAKTIDRVVDVFPAEEKAMVRSMLSESLQSVISQTLIKKIGGGRVAAHEIMIGTPAIRNLIREDKVAQMYSAIQTGGSLGMQTLDMCLKGLVAKGLISRENAREKAKIPENF", "note": "[chain 1 T216R]", "response": 10000}
{"variant": "chain 1 MDITELLAFSAKQGASDLHLSAGLPPMIRVDGDVRRINLPPLEHKQVHALIYDIMNDKQRKDFEEFLETDFSFEVPGVARFRVNAFNQNRGAGAVFRTIPSKVLTMEELGMGEVFKRVSDVPRGLVLVTGPTGSGKSTTLAAMLDYLNNTKYHHILTIEDPIEFVHESKKCLVNQREVHRDTLGFSEALRSALREDPDIILVGEMRDLETIRLALTAAETGHLVFGTLHTTSAAKTIDRVVDVFPAEEKAMVRSMLSESLQSVISQTLIKKIGGGRVAAHEIMIGTPAIRNLIEEDKVAQMYSAIQTGGSLGMQTLDMCLKGLVAKGLISRENAREKAKIPENF", "note": "[chain 1 R294E]", "response": 8600}
{"variant": "chain 1 MDITELLAFSAKQGASDLHLSAGLPPMIRVDGDVRRINLPPLEHKQVHALIYDIMNDKQRKDFEEFLETDFSFEVPGVARFRVNAFNQNRGAGAVFRTIPSKVLTMEELGMGEVFKRVSDVPRGLVLVTGPTGSGKSTTLAAMLDYLNNTKYHHILTIEDPIEFVHESKKCLVNQREVHRDTLGFSEALRSALREDPDIILVGEMRDLETIRLALTAAETGHLVFGTLHTTSAAKTIDAVVDVFPAEEKAMVRSMLSESLQSVISQTLIKKIGGGRVAAHEIMIGTPAIRNLIREDKVAQMYSAIQTGGSLGMQTLDMCLKGLVAKGLISRENAREKAKIPENF", "note": "[chain 1 R239A]", "response": 11000}
{"variant": "chain 1 MDITELLAFSAKQGASDLHLSAGLPPMIRVDGDVRRINLPPLEHKQVHALIYDIMNDQQRKDFEEFLETDFSFEVPGVARFRVNAFNQNRGAGAVFRTIPSKVLTMEELGMGEVFKRVSDVPRGLVLVTGPTGSGKSTTLAAMLDYLNNTKYHHILTIEDPIEFVHESKKCLVNQREVHRDTLGFSEALRSALREDPDIILVGEMRDLETIRLALTAAETGHLVFGTLHTTSAAKTIDRVVDVFPAEEKAMVRSMLSESLQSVISQTLIKKIGGGRVAAHEIMIGTPAIRNLIREDKVAQMYSAIQTGGSLGMQTLDMCLKGLVAKGLISRENAREKAKIPENF", "note": "[chain 1 K58Q]", "response": 10000}
{"variant": "chain 1 MDITELLAFSAKQGASDLHLSAGLPPMIRVDGDVRRINLPPLEHKQVHALIYDIMNDAQRKDFEEFLETDFSFEVPGVARFRVNAFNQNRGAGAVFRTIPSKVLTMEELGMGEVFKRVSDVPRGLVLVTGPTGSGKSTTLAAMLDYLNNTKYHHILTIEDPIEFVHESKKCLVNQREVHRDTLGFSEALRSALREDPDIILVGEMRDLETIRLALTAAETGHLVFGTLHTTSAAKTIDRVVDVFPAEEKAMVRSMLSESLQSVISQTLIKKIGGGRVAAHEIMIGTPAIRNLIREDKVAQMYSAIQTGGSLGMQTLDMCLKGLVAKGLISRENAREKAKIPENF", "note": "[chain 1 K58A]", "response": 10000}
{"variant": "chain 1 MDITELLAFSAKQGASDLHLSAGLPPMIRVDGDVRRINLPPLEHKQVHALIYDIMNDRQRKDFEEFLETDFSFEVPGVARFRVNAFNQNRGAGAVFRTIPSKVLTMEELGMGEVFKRVSDVPRGLVLVTGPTGSGKSTTLAAMLDYLNNTKYHHILTIEDPIEFVHESKKCLVNQREVHRDTLGFSEALRSALREDPDIILVGEMRDLETIRLALTAAETGHLVFGTLHTTSAAKTIDRVVDVFPAEEKAMVRSMLSESLQSVISQTLIKKIGGGRVAAHEIMIGTPAIRNLIREDKVAQMYSAIQTGGSLGMQTLDMCLKGLVAKGLISRENAREKAKIPENF", "note": "[chain 1 K58R]", "response": 11000}
{"variant": "chain 1 MDITELLAFSAKQGASDLHLSAGLPPMIRVDGDVRRINLPPLEHKQVHALIYDIMNDKQRKDFEEFLETDFSFEVPGVARFRVNAFNQNRGAGAVFRTIPSKVLTMEELGMGEVFKRVSDVPRGLVLVTGPTGSGKSTTLAAMLDYLNNTKYHHILTIEDPIEFVHESKKCLVNQREVHRDTLGFSEALRSALREDPDIILVGAMRDLETIRLALTAAETGHLVFGTLHTTSAAKTIDRVVDVFPAEEKAMVRSMLSESLQSVISQTLIKKIGGGRVAAHEIMIGTPAIRNLIREDKVAQMYSAIQTGGSLGMQTLDMCLKGLVAKGLISRENAREKAKIPENF", "note": "[chain 1 E204A]", "response": 8000}
{"variants_of": "B2", "assay": "bacterial two-hybrid (BACTH), β-galactosidase activity", "settings": "with PilC^Pa two-hybrid fusion from pUT18C::PilC^Pa [Pseudomonas aeruginosa]; E. coli BTH101; n = 3; parent: 650; read off a plot", "units": {"response": "Miller units"}}
{"variant": "chain 1 MDITELLAFSAKQGASDLHLSAGLPPMIRVDGDVRRINLPPLEHKQVHALIYDIMNDKQRKDFEEFLETDFSFEVPGVARFRVNAFNQNRGAGAVFRTIPSKVLTMEELGMGEVFKRVSDVPRGLVLVTGPTGSGKSTTLAAMLDYLNNTKYHHILTIEDPIEFVHESKKCLVNQREVHRDTLGFSEALRSALREDPDIILVGEMRDLETIRLALTAAETGHLVFGTLATTSAAKTIDRVVDVFPAEEKAMVRSMLSESLQSVISQTLIKKIGGGRVAAHEIMIGTPAIRNLIREDKVAQMYSAIQTGGSLGMQTLDMCLKGLVAKGLISRENAREKAKIPENF", "note": "[chain 1 H229A]", "response": 650}
{"variant": "chain 1 MDITELLAFSAKQGASDLHLSAGLPPMIRVDGDVRRINLPPLEHKQVHALIYDIMNDKQRKDFEEFLETDFSFEVPGVARFRVNAFNQNRGAGAVFRTIPSKVLTMEELGMGEVFKRVSDVPRGLVLVTGPTGSGKSTTLAAMLDYLNNTKYHHILTIEDPIEFVHESKKCLVNQREVHRDTLGFSEALRSALREDPDIILVGAMRDLETIRLALTAAETGHLVFGTLHTTSAAKTIDRVVDVFPAEEKAMVRSMLSESLQSVISQTLIKKIGGGRVAAHEIMIGTPAIRNLIREDKVAQMYSAIQTGGSLGMQTLDMCLKGLVAKGLISRENAREKAKIPENF", "note": "[chain 1 E204A]", "response": 460}
